Test results published in patent US6855815 (Amgen, dated 2005).

Tests used:
[1] = target: T1, human cellular inhibitor of apoptosis protein 1 (c-IAP1) (human, UniProt Q13490 1-618); test: yeast two-hybrid
T1 construct: Tested in a yeast two-hybrid system; also called h c-IAP1
Excerpt: (§1) A yeast two-hybrid system was used to determine how c-IAP1 and -2 interact with TNF-R2 and/or TRAFs. The following results were obtained indistinguishably for c-IAP1 and c-IAP2. […] However, a direct interaction could be detected between c-IAP1 and TRAF2. […] Consistently, c-IAP1 also interacted with TRAF1. […] Thus c-IAP1 and TNF-R2 bind to non-overlapping docking sites within the TRAF domain of TRAF2. […] Similarly, combinations of two of the three BIR motifs e.g. amino acid residues 46–99 and 204–249 of c-IAP1 and 29–82 and 189–234 of c-IAP2, separated by IAP1 derived intervening sequences of varying lengths are assayed for TRAF1 and TRAF2 binding. […] The RING finger domain of c-IAP1/2 (amino acids 571–618 of c-IAP1 and 557–604 of c-IAP2) is not required for interaction with TRAFs, but rather mediates subsequent steps in the c-IAP1/2 signaling cascade. Similarly, a variety of c-IAP1 derived N-terminal leader sequences fused to the c-IAP1 RING finger domain are used to assay signal transduction mediation.

[2] = target: T2, human cellular inhibitor of apoptosis protein 2 (c-IAP2) (human, UniProt Q13489 1-604); test: yeast two-hybrid
T2 construct: The two-hybrid fusion partners are not described; also called h c-IAP2
Excerpt: as §1

[3] = target: T3, c-IAP1 N-terminally tagged with a FLAG epitope peptide (Homo sapiens (Human), UniProt Q13490 1-618); test: co-immunoprecipitation from transfected 293 cells (anti-TNF-R2 IP, anti-FLAG Western)
T3 construct: Expressed in human embryonic 293 cells from a pRK vector (CMV promoter); also called FLAG-tagged c-IAP1
Protocol: A transfection based co-immunoprecipitation assay was used to investigate how c-IAP1 interacts with the complex of TNF-R2 and TRAFs. In this system c-IAP1 was N-terminally tagged with a FLAG epitope peptide and expressed in human embryonic 293 cells under the control of a constitutive CMV promotor (pRK vector). The c-IAP1 expression vector was transiently co-transfected into 293 cells with expression vectors for TNF-R2 and TRAFs. After 24–36 h, the cells were harvested and extracts immunoprecipitated with anti-TNF-R2 antibodies, followed by Western analysis with anti-FLAG antibodies. […] Thus, c-IAP1 is a component of the TNF-R2 (CD40)/TRAF signaling complex.

Measured: binding result

T3 sequence (Q13490 whole entry): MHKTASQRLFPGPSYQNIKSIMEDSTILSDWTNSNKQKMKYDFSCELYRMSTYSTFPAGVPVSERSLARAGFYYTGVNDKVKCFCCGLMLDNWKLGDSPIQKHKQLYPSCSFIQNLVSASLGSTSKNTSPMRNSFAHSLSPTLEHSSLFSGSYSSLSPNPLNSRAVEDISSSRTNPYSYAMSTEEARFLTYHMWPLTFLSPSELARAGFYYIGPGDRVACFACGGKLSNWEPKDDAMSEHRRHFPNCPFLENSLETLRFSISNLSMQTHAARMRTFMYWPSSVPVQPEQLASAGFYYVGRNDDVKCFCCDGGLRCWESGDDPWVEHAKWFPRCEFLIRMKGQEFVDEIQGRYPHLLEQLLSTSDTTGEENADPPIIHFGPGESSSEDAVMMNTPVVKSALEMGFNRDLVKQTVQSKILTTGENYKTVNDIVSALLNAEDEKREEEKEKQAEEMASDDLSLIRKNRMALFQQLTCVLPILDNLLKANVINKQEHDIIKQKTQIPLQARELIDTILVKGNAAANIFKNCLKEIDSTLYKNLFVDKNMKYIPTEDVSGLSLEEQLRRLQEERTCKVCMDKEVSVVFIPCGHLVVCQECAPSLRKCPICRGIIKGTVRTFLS
T1 sequence (Q13490 whole entry): as above
T2 sequence (Q13489 whole entry, the tested form may be a part): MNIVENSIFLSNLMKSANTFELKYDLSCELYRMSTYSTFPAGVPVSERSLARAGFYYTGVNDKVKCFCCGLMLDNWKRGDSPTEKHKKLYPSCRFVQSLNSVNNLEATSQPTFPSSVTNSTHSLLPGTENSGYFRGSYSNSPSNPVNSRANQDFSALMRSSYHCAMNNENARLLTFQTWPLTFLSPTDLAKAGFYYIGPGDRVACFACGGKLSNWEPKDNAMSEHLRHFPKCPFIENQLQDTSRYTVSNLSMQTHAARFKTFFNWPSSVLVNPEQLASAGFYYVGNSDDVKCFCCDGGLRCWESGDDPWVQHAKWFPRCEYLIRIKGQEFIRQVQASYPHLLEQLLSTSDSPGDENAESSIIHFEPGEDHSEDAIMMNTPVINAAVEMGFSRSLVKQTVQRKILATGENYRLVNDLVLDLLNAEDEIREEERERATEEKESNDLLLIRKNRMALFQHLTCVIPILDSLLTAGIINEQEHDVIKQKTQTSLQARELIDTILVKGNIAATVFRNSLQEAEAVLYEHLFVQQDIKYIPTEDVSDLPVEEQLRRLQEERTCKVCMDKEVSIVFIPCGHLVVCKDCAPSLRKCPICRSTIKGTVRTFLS

B1: TNF-R2 (receptor, UniProt P20333 288-461, looked up)
chain: KKKPLCLQREAKVPHLPADKARGTQGPEQQHLLITAPSSSSSSLESSASALDRRAPTRNQPQAPGVEASGAGEARASTGSSDSSPGGHGTQVNVTCIVNVCSSSDHSSQCSSQASSTMGDTDSSPSESPKDEQVPFSKEECAFRSQLETPETLLGSTEEKPLPLGVPDAGMKPS
notes: In the co-immunoprecipitation it was expressed from a vector in 293 cells
no binding: all assays above
